Assay results taken from patent US20260116960A1 (SHANGHAI HONGCHENG BIOPHARMACEUTICAL, published 2026).

What was measured:
[1] = molecular target: T1, human CTLA-4 on the cell surface (human, UniProt P16410 36-223); experiment: flow cytometry competition, 293T-hPD-1-hCTLA-4 cells (PD-1 co-expressed), biotin-human CD80
T1 construct: whole, on cells; also called CHO-hCTLA-4 cells; CHOK1-hCTLA4 cells
Experimental: PD-1 and CTLA-4 are co-expressed on functionally exhausted T cells in the tumor microenvironment, and the expression level of PD-1 is higher than that of CTLA-4. […] 200 μL of the cells were added to a 96-well U-bottom plate, approximately 1.4×10⁵ cells/well. After centrifugation at 300 g for 5 minutes, the supernatant was discarded. […] After washing three times with FACS buffer, 100 μL/well of 1:800 diluted PE Streptavidin was added and incubated at 4° C. for 50 min. After washing three times with FACS buffer, 150 μL/well of PBS was added to resuspend the cells, and the fluorescence signal was detected on a flow cytometer (BECKMAN COULTER cytoFLEX). The binding activity was fitted using a four-parameter model, and the IC₅₀ value of the blocking activity of each antibody was calculated.

[2] = molecular target: T2, human CTLA-4 protein (Acro, Catalog No. CT4-H52H9) (human, UniProt P16410 36-161); experiment: ELISA, plate coated with human CTLA-4 protein
T2 construct: Bought protein
T2 sequence (P16410 36-161 limits assumed): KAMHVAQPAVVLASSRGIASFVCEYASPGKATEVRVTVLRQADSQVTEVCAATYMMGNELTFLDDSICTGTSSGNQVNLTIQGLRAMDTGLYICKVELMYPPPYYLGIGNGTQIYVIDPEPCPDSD

[3] = molecular target: T3, human PD-1 protein (Acro, Catalog No. PD1-H5221) (human, UniProt Q15116 25-167); experiment: ELISA, plate coated with human PD-1 protein
T3 construct: Bought protein; also called human PD1-his; not shown: his tag
T3 sequence (Q15116 25-167 limits assumed): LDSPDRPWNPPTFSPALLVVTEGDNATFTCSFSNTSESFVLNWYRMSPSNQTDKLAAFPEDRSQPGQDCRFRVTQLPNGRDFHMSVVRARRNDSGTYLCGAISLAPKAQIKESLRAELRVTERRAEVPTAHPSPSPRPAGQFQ
Experimental: (§1) ELISA was used to determine the activity of the trispecific antibodies binding to the PD-1 protein: 1 μg/mL human PD-1 protein (Acro, Catalog No.: PD1-H5221) was used to coat a high-adsorption 96-well ELISA plate and incubated at 4° C. overnight. On the next day, the plate was washed three times with PBST solution and blocked with 1% BSA-PBS solution at 37° C. for 1 hour. At the same time, 3-fold gradient dilutions of the antibody were prepared with 1% BSA-PBS solution, with a starting concentration of 10 nM. The antibodies of each gradient concentration were added to the blocked 96-well ELISA plate at 100 µL/well in triplicate and incubated at 37° C. for 1 hour. The plate was then washed three times with 0.05% PBST solution, and 100 μL/well of HRP-labeled secondary antibody (Sigma, Catalog No.: A0170) diluted at 1:5000 was added to the ELISA plate and incubated at 37° C. for 1 hour. The plate was washed three times with 0.05% PBST solution and developed with TMB. The absorbance of the 96-well ELISA plate at 450 nm was detected by an ELISA reader. The OD₄₅₀ value was fitted using a four-parameter model to calculate the EC₅₀ value of each antibody binding to PD-1.

[4] = molecular target: T4, human PD-1 on the cell surface (human, UniProt Q15116 25-288); experiment: flow cytometry competition, 293T-hPD-1 cells, biotin-human PD-L1
T4 construct: whole, on cells; also called cell surface PD-1
T4 sequence (Q15116 25-288): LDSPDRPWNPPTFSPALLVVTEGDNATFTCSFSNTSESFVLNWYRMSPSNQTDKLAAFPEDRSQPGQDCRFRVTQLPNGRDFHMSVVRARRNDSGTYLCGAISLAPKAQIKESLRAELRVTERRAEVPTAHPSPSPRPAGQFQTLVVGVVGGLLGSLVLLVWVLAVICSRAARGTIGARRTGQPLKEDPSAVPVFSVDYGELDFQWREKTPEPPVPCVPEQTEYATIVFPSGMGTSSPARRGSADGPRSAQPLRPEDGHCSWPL
Experimental: 50 μL of antibody solution serially diluted 3-fold in FACS buffer was added in triplicate, with a starting concentration of 200 nM. After mixing, incubated at 4° C. for 60 minutes. After washing three times with FACS buffer, 100 μL/well of 1:800 diluted PE Streptavidin was added and incubated at 4° C. for 50 min. After washing three times with FACS buffer, 150 μL/well of PBS was added to resuspend the cells, and the fluorescence signal was detected on a flow cytometer (BECKMAN COULTER cytoFLEX). The four-parameter model was used to fit the binding activity and the IC₅₀ value of the blocking activity of each antibody was calculated.

[5] = molecular target: T5, human VEGF165-his protein (Acro, Catalog No. VE5-H5248) (human, UniProt P15692-4 27-191); experiment: ELISA, plate coated with human VEGF165-his
T5 construct: Bought protein; also called hVEGF165-His; VEGFA; not shown: his tag
T5 sequence (P15692 other isoform, or with tags, fused parts or gaps limits assumed): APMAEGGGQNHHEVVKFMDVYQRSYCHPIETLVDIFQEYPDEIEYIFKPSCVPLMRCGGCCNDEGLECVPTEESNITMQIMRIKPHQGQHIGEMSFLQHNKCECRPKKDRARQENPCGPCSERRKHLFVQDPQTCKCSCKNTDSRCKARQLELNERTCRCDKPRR
Experimental: as §1
The binding activity of the trispecific antibodies to VEGFA protein was detected by ELISA method as described in Section 2.1. The used human VEGF165-his protein was purchased from Acro, Catalog No.: VE5-H5248.

[6] = molecular target: human PD-1 protein (Acro, PD1-H5257) (human, UniProt Q15116 25-167); experiment: competitive ELISA, PD-1 coated, biotin-PD-L1 as labelled ligand
Sequence of human PD-1 protein (Acro, PD1-H5257) (Q15116 25-167 limits assumed): as the sequence (Q15116 25-167 limits assumed) above
Experimental: The next day, the plate was washed three times with PBS solution and blocked with 1% BSA-PBS solution at 37° C. for 1 hour. […] 100 μL of the antibody-protein mixture was added to each well of the blocked 96-well ELISA plate and incubated at 37° C. for 1 hour. After washing four times with PBST, 100 μL of Strep-HRP (BD, Catalog No. 554066) diluted 1:5000 was added to each well of the ELISA plate and incubated at 37° C. for 1 hour. After washing 4 times with PBST, TMB was used for color development. The absorbance at 450 nm and 630 nm was detected by a microplate reader, and OD450-OD630 was calculated. The fluorescence intensity was fitted using a four-parameter model, and the IC₅₀ value of the blocking activity of each antibody was calculated.

T1 sequence (P16410 36-223): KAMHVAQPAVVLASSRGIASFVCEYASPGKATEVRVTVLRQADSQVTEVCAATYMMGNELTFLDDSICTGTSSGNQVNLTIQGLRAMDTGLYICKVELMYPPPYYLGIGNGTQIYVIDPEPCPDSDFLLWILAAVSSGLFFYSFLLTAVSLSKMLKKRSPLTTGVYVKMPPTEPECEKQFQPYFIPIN

IC50 [1] | EC50 [2] | EC50 [3] | IC50 [4] | EC50 [5] | IC50 [6] | Binder
0.066 nM | 0.438 nM | 0.307 nM | 69.9 nM | 0.098 nM | 1.63 nM | HC010-F13 (trispecific antibody, human IgG4 S228P, kappa, Knob-into-hole heterodimer; light: CQ1-3/1-11 VL-kappa; One site each for PD-1 and CTLA-4; also called H010-F13) heavy 1: EVQLVESGGGLVQPGGSLRLSCAASGFTFSSYGMSWVRQAPGKGLEWVSTISGGGRDTYYPDSVKGRFTISRDNSKNTLYLQMNSLRAEDTAVYYCARQNGITWFADWGQGTLVTVSSASTKGPSVFPLAPCSRSTSESTAALGCLVKDYFPEPVTVSWNSGALTSGVHTFPAVLQSSGLYSLSSVVTVPSSSLGTKTYTCNVDHKPSNTKVDKRVESKYGPPCPPCPAPEFLGGPSVFLFPPKPKDTLMISRTPEVTCVVVDVSQEDPEVQFNWYVDGVEVHNAKTKPREEQFNSTYRVVSVLTVLHQDWLNGKEYKCKVSNKGLPSSIEKTISKAKGQPREPQVYTLPPCQEEMTKNQVSLWCLVKGFYPSDIAVEWESNGQPENNYKTTPPVLDSDGSFFLYSRLTVDKSRWQEGNVFSCSVMHEALHNHYTQKSLSLSLGAGGGGSGGGGSGGGGSGGGGSEVQLVESGGGLVQPGGSLRLSCAASGYTFTNYGMNWVRQAPGKCLEWVGWINTYTGEPTYAADFKRRFTFSLDTSKSTAYLQMNSLRAEDTAVYYCAKYPHYYGSSHWYFDVWGQGTLVTVSSGGGGSGGGGSGGGGSGGGGSDIQMTQSPSSLSASVGDRVTITCSASQDISNYLNWYQQKPGKAPKVLIYFTSSLHSGVPSRFSGSGSGTDFTLTISSLQPEDFATYYCQQYSTVPWTFGCGTKVEIK heavy 2: EVQLLESGGGLVQPGGSLRLSCAASGSIFSINHMAWYRQAPGKQRELVAGVNSRGTTNYVDSVKGRFTISRDNSKNTLYLQMNSLRAEDTAVYYCRALGGAVAAWGQGTLVTVSSGGGGSGGGGSGGGGSGGGGSESKYGPPCPPCPAPEFLGGPSVFLFPPKPKDTLMISRTPEVTCVVVDVSQEDPEVQFNWYVDGVEVHNAKTKPREEQFNSTYRVVSVLTVLHQDWLNGKEYKCKVSNKGLPSSIEKTISKAKGQPREPQVCTLPPSQEEMTKNQVSLSCAVKGFYPSDIAVEWESNGQPENNYKTTPPVLDSDGSFFLVSRLTVDKSRWQEGNVFSCSVMHEALHNRFTQKSLSLSLGAGGGGSGGGGSGGGGSGGGGSEVQLVESGGGLVQPGGSLRLSCAASGYTFTNYGMNWVRQAPGKCLEWVGWINTYTGEPTYAADFKRRFTFSLDTSKSTAYLQMNSLRAEDTAVYYCAKYPHYYGSSHWYFDVWGQGTLVTVSSGGGGSGGGGSGGGGSGGGGSDIQMTQSPSSLSASVGDRVTITCSASQDISNYLNWYQQKPGKAPKVLIYFTSSLHSGVPSRFSGSGSGTDFTLTISSLQPEDFATYYCQQYSTVPWTFGCGTKVEIK light: DIQMTQSPSSLSASVGDRVTITCRASESVDNYGISFMNWYQQKPGKAPKLLIYAASNQGSGVPSRFSGSGSGTDFTLTISSLQPEDFATYYCQQSKEVPWTFGGGTKVEIKRTVAAPSVFIFPPSDEQLKSGTASVVCLLNNFYPREAKVQWKVDNALQSGNSQESVTEQDSKDSTYSLSSTLTLSKADYEKHKVYACEVTHQGLSSPVTKSFNRGEC
– | – | 0.712 nM | 326 nM | 0.087 nM | 2.22 nM | HC010-F15 (trispecific antibody, human IgG4 S228P, kappa, Knob-into-hole heterodimer; light: ipilimumab VL-kappa; also called H010-F15) heavy 1: QVQLVESGGGVVQPGRSLRLSCAASGFTFSSYTMHWVRQAPGKGLEWVTFISYDGNNKYYADSVKGRFTISRDNSKNTLYLQMNSLRAEDTAIYYCARTGWLGPFDYWGQGTLVTVSSASTKGPSVFPLAPCSRSTSESTAALGCLVKDYFPEPVTVSWNSGALTSGVHTFPAVLQSSGLYSLSSVVTVPSSSLGTKTYTCNVDHKPSNTKVDKRVESKYGPPCPPCPAPEFLGGPSVFLFPPKPKDTLMISRTPEVTCVVVDVSQEDPEVQFNWYVDGVEVHNAKTKPREEQFNSTYRVVSVLTVLHQDWLNGKEYKCKVSNKGLPSSIEKTISKAKGQPREPQVYTLPPCQEEMTKNQVSLWCLVKGFYPSDIAVEWESNGQPENNYKTTPPVLDSDGSFFLYSRLTVDKSRWQEGNVFSCSVMHEALHNHYTQKSLSLSLGAGGGGSGGGGSGGGGSGGGGSEVQLVESGGGLVQPGGSLRLSCAASGYTFTNYGMNWVRQAPGKCLEWVGWINTYTGEPTYAADFKRRFTFSLDTSKSTAYLQMNSLRAEDTAVYYCAKYPHYYGSSHWYFDVWGQGTLVTVSSGGGGSGGGGSGGGGSGGGGSDIQMTQSPSSLSASVGDRVTITCSASQDISNYLNWYQQKPGKAPKVLIYFTSSLHSGVPSRFSGSGSGTDFTLTISSLQPEDFATYYCQQYSTVPWTFGCGTKVEIK heavy 2: EVQLVESGGGLVQPGGSLRLSCAASGFTFSSYGMSWVRQAPGKCLEWVSTISGGGRDTYYPDSVKGRFTISRDNSKNTLYLQMNSLRAEDTAVYYCARQNGITWFADWGQGTLVTVSSGGGGSGGGGSGGGGSGGGGSDIQMTQSPSSLSASVGDRVTITCRASESVDNYGISFMNWYQQKPGKAPKLLIYAASNQGSGVPSRFSGSGSGTDFTLTISSLQPEDFATYYCQQSKEVPWTFGCGTKVEIKGGGGSGGGGSGGGGSGGGGSESKYGPPCPPCPAPEFLGGPSVFLFPPKPKDTLMISRTPEVTCVVVDVSQEDPEVQFNWYVDGVEVHNAKTKPREEQFNSTYRVVSVLTVLHQDWLNGKEYKCKVSNKGLPSSIEKTISKAKGQPREPQVCTLPPSQEEMTKNQVSLSCAVKGFYPSDIAVEWESNGQPENNYKTTPPVLDSDGSFFLVSRLTVDKSRWQEGNVFSCSVMHEALHNRFTQKSLSLSLGAGGGGSGGGGSGGGGSGGGGSEVQLVESGGGLVQPGGSLRLSCAASGYTFTNYGMNWVRQAPGKCLEWVGWINTYTGEPTYAADFKRRFTFSLDTSKSTAYLQMNSLRAEDTAVYYCAKYPHYYGSSHWYFDVWGQGTLVTVSSGGGGSGGGGSGGGGSGGGGSDIQMTQSPSSLSASVGDRVTITCSASQDISNYLNWYQQKPGKAPKVLIYFTSSLHSGVPSRFSGSGSGTDFTLTISSLQPEDFATYYCQQYSTVPWTFGCGTKVEIK light: not shown

The remaining lines, values behind:

Binder | IC50 [1] | EC50 [2] | EC50 [3] | IC50 [4] | EC50 [5] | IC50 [6]
HC010-F7 (trispecific antibody, human IgG4 S228P, kappa, light: CQ1-3/1-11 VL-kappa; also called H010-F7) heavy: not shown light: DIQMTQSPSSLSASVGDRVTITCRASESVDNYGISFMNWYQQKPGKAPKLLIYAASNQGSGVPSRFSGSGSGTDFTLTISSLQPEDFATYYCQQSKEVPWTFGGGTKVEIKRTVAAPSVFIFPPSDEQLKSGTASVVCLLNNFYPREAKVQWKVDNALQSGNSQESVTEQDSKDSTYSLSSTLTLSKADYEKHKVYACEVTHQGLSSPVTKSFNRGEC | 0.055 nM | 0.059 nM | 0.085 nM | 3.7 nM | 0.081 nM | 0.433 nM
HC010-F11 (trispecific antibody, human IgG4 S228P, kappa, light: CQ1-3/1-11 VL-kappa - (G4S)4 - 202F1 VHH; also called H010-F11) heavy: not shown light: DIQMTQSPSSLSASVGDRVTITCRASESVDNYGISFMNWYQQKPGKAPKLLIYAASNQGSGVPSRFSGSGSGTDFTLTISSLQPEDFATYYCQQSKEVPWTFGGGTKVEIKRTVAAPSVFIFPPSDEQLKSGTASVVCLLNNFYPREAKVQWKVDNALQSGNSQESVTEQDSKDSTYSLSSTLTLSKADYEKHKVYACEVTHQGLSSPVTKSFNRGECGGGGSGGGGSGGGGSGGGGSEVQLLESGGGLVQPGGSLRLSCAASGSIFSINHMAWYRQAPGKQRELVAGVNSRGTTNYVDSVKGRFTISRDNSKNTLYLQMNSLRAEDTAVYYCRALGGAVAAWGQGTLVTVSS | 0.076 nM | 0.044 nM | 0.114 nM | 5.58 nM | 0.125 nM | 0.83 nM
